Source: the supplement of paper PMC9876800

Tested on: peptide library, one residue held at a place counted from the S/T acceptor
Assay: relative phosphorylation of the sub-library (ratio to the mean residue at this position); higher = residue favoured
Conditions: human
Procedure, shortened: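 Purified recombinant kinases (human or orthologue constructs) were incubated in 384-well plates with biotinylated degenerate peptide sub-libraries, each fixing one residue at one position around a central Ser/Thr. Peptides were at 50 μM, with 50 μM ATP spiked with γ-32P-ATP, for 90 min under kinase-specific conditions. Spots on streptavidin membranes were phosphorimaged and quantified by densitometry. Relative sub-library phosphorylation is a ratio to the mean residue at that position.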

Sequence of ERN2, construct: aa490-end (Q76MJ5 490-926, looked up): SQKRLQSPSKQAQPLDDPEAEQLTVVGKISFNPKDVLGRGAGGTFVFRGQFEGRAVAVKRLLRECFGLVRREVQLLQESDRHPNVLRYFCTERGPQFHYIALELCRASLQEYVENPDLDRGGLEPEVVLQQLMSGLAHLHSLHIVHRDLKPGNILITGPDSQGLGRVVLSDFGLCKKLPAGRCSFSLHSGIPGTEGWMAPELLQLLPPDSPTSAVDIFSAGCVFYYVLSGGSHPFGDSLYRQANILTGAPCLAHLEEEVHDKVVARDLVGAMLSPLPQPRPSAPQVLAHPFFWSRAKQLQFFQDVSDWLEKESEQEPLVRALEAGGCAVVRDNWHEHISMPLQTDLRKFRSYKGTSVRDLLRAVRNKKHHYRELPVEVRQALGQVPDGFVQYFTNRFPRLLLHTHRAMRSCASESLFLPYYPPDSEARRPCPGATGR
Sequence of MYLK2, construct: Full length (Q9H1R3 whole entry, looked up): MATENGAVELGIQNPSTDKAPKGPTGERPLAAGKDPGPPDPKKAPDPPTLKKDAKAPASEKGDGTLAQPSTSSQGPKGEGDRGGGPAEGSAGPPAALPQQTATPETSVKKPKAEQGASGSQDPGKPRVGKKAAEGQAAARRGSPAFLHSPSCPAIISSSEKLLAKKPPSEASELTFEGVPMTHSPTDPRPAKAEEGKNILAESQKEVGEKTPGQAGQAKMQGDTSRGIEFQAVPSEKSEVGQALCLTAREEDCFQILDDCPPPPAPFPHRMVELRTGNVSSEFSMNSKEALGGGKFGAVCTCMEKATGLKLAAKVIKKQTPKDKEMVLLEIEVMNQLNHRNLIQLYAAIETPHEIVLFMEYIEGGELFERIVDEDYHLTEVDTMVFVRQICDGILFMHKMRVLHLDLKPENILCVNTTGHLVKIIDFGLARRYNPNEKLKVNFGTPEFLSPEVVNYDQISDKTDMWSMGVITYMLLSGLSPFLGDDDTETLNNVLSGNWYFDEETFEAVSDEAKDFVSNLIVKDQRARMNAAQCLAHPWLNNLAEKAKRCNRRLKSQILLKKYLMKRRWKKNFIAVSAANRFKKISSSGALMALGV
Sequence of CSNK1G2, construct: aa43-353 (P78368 43-353, looked up): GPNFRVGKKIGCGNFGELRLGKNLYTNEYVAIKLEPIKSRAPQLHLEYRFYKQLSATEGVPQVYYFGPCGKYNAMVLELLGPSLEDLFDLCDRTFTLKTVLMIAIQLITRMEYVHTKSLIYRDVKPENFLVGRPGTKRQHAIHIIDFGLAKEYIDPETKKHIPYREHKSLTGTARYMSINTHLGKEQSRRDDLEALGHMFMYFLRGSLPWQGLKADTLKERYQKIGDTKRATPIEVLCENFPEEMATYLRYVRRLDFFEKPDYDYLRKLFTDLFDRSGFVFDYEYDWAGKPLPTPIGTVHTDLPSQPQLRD

SRPK1, construct: Full length (from UniProt Q96SB4)
relative phosphorylation
Conditions	at +1	at +2	at +3	at +4	at -1	at -2	at -3	at -4	at -5
A fixed	0.85	1.23	0.682	1.04	1.12	1.65	0.811	1.21	1.51
D fixed	0.273	1.46	0.499	1.13	0.486	1.63	0.506	0.682	0.77
E fixed	0.377	1.33	0.412	0.886	0.589	0.981	0.363	0.734	0.686
F fixed	0.387	0.626	0.424	0.741	0.476	0.637	0.297	0.713	1
G fixed	0.942	1.03	0.911	1.12	0.959	1.34	0.634	1.14	1.28
H fixed	0.563	1.61	0.697	0.988	1.2	1.72	0.454	0.956	0.954
I fixed	0.607	0.588	0.46	0.823	0.554	0.51	0.372	0.736	0.796
K fixed	1.55	1.14	1.43	1.47	2.19	1.34	1.02	1.61	1.58
L fixed	0.698	0.623	0.46	0.781	0.741	0.429	0.326	0.725	0.788
M fixed	0.62	0.715	0.499	0.773	0.723	0.5	0.302	0.823	0.892
N fixed	0.613	1.15	0.796	1.05	1.02	1.19	0.433	0.962	0.867
P fixed	4.75	1.34	1.69	1.36	1.9	1.03	0.6	1.38	1.01
Q fixed	0.932	0.981	0.699	1.1	1.16	0.692	0.596	0.87	0.675
R fixed	2.33	1.27	5.99	1.4	2.17	1.6	9.31	2.29	1.45
V fixed	0.722	0.715	0.458	0.705	0.698	0.54	0.343	0.66	0.879
W fixed	0.417	0.582	0.452	0.886	0.42	0.616	0.312	0.735	1.04
Y fixed	0.378	0.607	0.439	0.745	0.572	0.594	0.322	0.771	0.829
pThr fixed	0.489	1.26	0.585	1.19	0.548	0.681	0.51	0.772	0.765
pTyr fixed	0.462	0.95	0.653	1.06	0.753	1.39	0.694	1.43	0.947

CSNK1G2, construct: aa43-353 (from UniProt P78368)
relative phosphorylation
Conditions	at +1	at +2	at +3	at +4	at -1	at -2	at -3	at -4	at -5
A fixed	0.721	0.84	0.944	0.864	1.07	1.17	0.642	1.13	0.845
D fixed	0.589	0.43	1.14	1.31	1.52	1.2	4.54	1.46	2.48
E fixed	1	0.999	0.339	1.25	2.85	4.44	2.79	1.85	1.89
F fixed	0.973	1.33	1.29	0.996	0.834	0.524	0.55	0.896	0.82
G fixed	0.636	0.516	1.23	0.746	0.797	0.686	0.705	0.767	0.79
H fixed	0.986	1.21	1.59	0.806	0.904	0.682	0.652	0.861	0.886
I fixed	1.88	1.32	1.08	0.961	0.902	0.666	0.465	0.694	0.875
K fixed	0.517	0.942	0.54	0.702	0.774	0.659	0.891	0.877	0.968
L fixed	1.55	0.605	0.944	1	1.02	0.656	0.458	0.842	0.76
M fixed	1.36	1.3	1.09	1.03	0.484	0.594	0.561	0.817	0.799
N fixed	0.672	0.875	0.732	0.797	0.807	1.18	0.766	0.858	0.859
P fixed	0.44	0.537	0.738	0.947	0.965	0.876	0.577	1.05	0.745
Q fixed	0.592	0.618	0.61	0.936	1.03	1.04	0.707	1.03	1
R fixed	0.813	0.996	0.687	0.684	1.11	0.695	0.895	1.02	0.961
V fixed	1.94	1.46	1.29	1.17	0.766	0.813	0.44	0.733	0.686
W fixed	0.852	1.34	1.27	1.35	0.589	0.5	0.652	1.15	0.821
Y fixed	1.47	1.68	1.49	1.45	0.569	0.619	0.711	0.971	0.816
pThr fixed	1.33	1.36	2.58	3.98	3.89	9.46	62.6	8.08	4.7
pTyr fixed	2.52	5.33	19.2	6.91	2.93	6.96	8.28	6.71	6.32

MYLK2, construct: Full length (from UniProt Q9H1R3)
relative phosphorylation
Conditions	at +1	at +2	at +3	at +4	at -1	at -2	at -3	at -4	at -5
A fixed	1.17	0.898	0.72	1.02	1	1.55	0.879	1.34	1.37
D fixed	0.541	0.852	1.08	1.07	0.654	0.423	0.467	0.847	0.683
E fixed	0.705	1.5	0.72	1.38	0.659	0.454	0.605	1.03	0.644
F fixed	0.621	1.42	1.62	0.804	0.486	0.461	0.464	0.852	0.932
G fixed	1.19	0.696	1.03	0.936	0.922	1.37	1.45	1.46	1.5
H fixed	0.988	1.02	0.825	0.938	1.49	1.08	1.02	0.942	1.1
I fixed	0.784	1.28	1.37	1.36	0.556	0.471	0.412	0.639	0.657
K fixed	1.5	0.664	0.482	0.898	1.89	1.44	2.17	1.03	1.19
L fixed	0.785	1.15	2.01	1.17	0.885	0.461	0.421	0.702	0.723
M fixed	1.27	1.06	1.13	0.925	0.891	0.512	0.474	0.836	0.739
N fixed	0.945	0.783	0.84	0.736	1.41	0.819	0.85	0.894	0.884
P fixed	0.323	0.785	0.8	1.36	1.37	1	1.35	1.53	1.62
Q fixed	1.81	0.757	0.557	0.973	1.35	0.806	0.894	1.01	0.834
R fixed	1.68	0.575	0.525	0.58	1.13	4.52	3.77	1.28	0.929
V fixed	1.07	1.21	0.919	1.23	0.688	0.558	0.477	0.753	0.853
W fixed	0.902	1.31	1.6	0.903	0.658	0.527	0.691	1.01	1.25
Y fixed	0.721	1.04	0.78	0.715	0.958	0.529	0.6	0.843	1.08
pThr fixed	1.71	1.59	0.794	1.43	0.612	0.958	0.847	1.05	1.06
pTyr fixed	0.726	1.47	0.977	1.37	0.886	0.674	0.819	0.934	0.84

ERN2, construct: aa490-end (from UniProt Q76MJ5)
relative phosphorylation
Conditions	at +1	at +2	at +3	at +4	at -1	at -2	at -3	at -4	at -5
A fixed	0.889	0.315	0.399	0.712	1.08	0.826	0.865	0.986	0.969
D fixed	0.292	0.208	0.22	0.365	0.7	0.969	0.947	0.892	0.961
E fixed	0.428	0.217	0.165	0.347	1.19	1.29	1.02	0.918	0.87
F fixed	0.683	0.733	1.24	0.849	0.953	0.865	0.676	0.677	0.695
G fixed	1.16	0.332	0.407	0.844	0.758	1.11	1.32	1.04	1.01
H fixed	0.924	0.767	1.27	1.08	1.6	1.08	1.17	1.17	1.24
I fixed	0.78	1.09	1.22	1.04	0.459	0.672	0.792	0.732	0.796
K fixed	2.19	2.21	1.39	1.94	0.955	1.43	1.12	1.53	1.6
L fixed	0.702	1.39	1.38	0.935	0.58	0.592	0.66	0.693	0.691
M fixed	1.24	1.32	0.95	0.996	0.951	0.814	0.861	0.751	0.704
N fixed	0.997	0.507	0.441	0.763	0.986	1.1	1.21	1.38	1.17
P fixed	0.247	0.305	0.346	1.15	1.47	1.37	1.09	0.914	0.915
Q fixed	1.44	0.787	0.591	1.04	1.42	1.25	1.27	1.14	1.14
R fixed	2.95	2.57	3.56	1.81	0.94	1.5	1.42	1.57	1.78
V fixed	0.809	1.16	0.669	0.86	0.927	0.732	0.776	0.759	0.704
W fixed	0.572	0.72	1.45	1.21	0.798	0.651	0.875	0.994	0.893
Y fixed	0.694	2.36	1.3	1.04	1.23	0.769	0.941	0.858	0.858
pThr fixed	0.298	0.212	0.237	0.355	0.355	0.648	0.798	0.779	0.732
pTyr fixed	0.286	0.235	0.283	0.296	0.692	0.694	0.652	0.474	0.562
